Key:
AncSZ = experiment: phosphorylation enrichment, bacterial display (enrichment ratio); higher = better substrate or ligand; peptides without Tyr show the background
EPHB1 = EPHB1 (UniProt P54762); experiment: as above
EPHB2 = EPHB2 (UniProt P29323); experiment: as above
FGFR1 = FGFR1 (UniProt P11362); experiment: as above
FGFR3 = FGFR3 (UniProt P22607); experiment: as above
Fer (mouse) = experiment: as above
Fes = Fes (UniProt P07332); experiment: as above
Fyn = Fyn (UniProt P06241); experiment: as above
Hck = Hck (UniProt P08631); experiment: as above
Jak2 = Jak2 (UniProt O60674); experiment: as above
MERTK = MERTK (UniProt Q12866); experiment: as above
c-Abl (mouse) = experiment: as above
c-Src = experiment: as above
Grb2 SH2 = Grb2 SH2 (UniProt P62993); experiment: SH2 binding enrichment of the phosphorylated peptide, bacterial display (enrichment ratio); higher = better substrate or ligand; peptides without Tyr show the background
SHP2-C SH2 = experiment: as above
c-Src SH2 = experiment: as above
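Throughout, for SH2 binding enrichment of the phosphorylated peptide, bacterial display: peptide library displayed on the E. coli surface as eCPX fusions, selected cells deep-sequenced, score is each peptide's frequency after selection divided by its frequency in the input.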
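Throughout, for phosphorylation enrichment, bacterial display: 11-residue human phosphosite peptides and single-mutation variants displayed on the E. coli surface, counted by deep sequencing, each peptide's frequency after selection divided by its frequency in the unselected input library; frequency after pTyr selection over input frequency; kinase dosed for 20-30% of maximal phosphorylation in three min.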

Chain of Fyn (P06241 whole entry, looked up): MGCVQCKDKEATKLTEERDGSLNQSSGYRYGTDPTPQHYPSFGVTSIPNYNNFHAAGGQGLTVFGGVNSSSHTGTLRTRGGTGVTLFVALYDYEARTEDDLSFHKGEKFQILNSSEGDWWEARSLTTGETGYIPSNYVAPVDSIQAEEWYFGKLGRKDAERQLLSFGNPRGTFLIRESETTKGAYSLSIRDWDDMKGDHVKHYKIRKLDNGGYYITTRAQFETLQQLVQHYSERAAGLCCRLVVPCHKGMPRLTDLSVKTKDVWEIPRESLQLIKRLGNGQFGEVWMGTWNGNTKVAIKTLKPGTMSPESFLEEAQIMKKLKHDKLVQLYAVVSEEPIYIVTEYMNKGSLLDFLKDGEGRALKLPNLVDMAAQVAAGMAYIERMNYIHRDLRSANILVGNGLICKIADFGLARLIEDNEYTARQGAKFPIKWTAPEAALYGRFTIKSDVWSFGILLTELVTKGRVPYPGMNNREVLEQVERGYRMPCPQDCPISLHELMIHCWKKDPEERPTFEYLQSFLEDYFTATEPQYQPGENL
Chain of EPHB1 (P54762 whole entry, looked up): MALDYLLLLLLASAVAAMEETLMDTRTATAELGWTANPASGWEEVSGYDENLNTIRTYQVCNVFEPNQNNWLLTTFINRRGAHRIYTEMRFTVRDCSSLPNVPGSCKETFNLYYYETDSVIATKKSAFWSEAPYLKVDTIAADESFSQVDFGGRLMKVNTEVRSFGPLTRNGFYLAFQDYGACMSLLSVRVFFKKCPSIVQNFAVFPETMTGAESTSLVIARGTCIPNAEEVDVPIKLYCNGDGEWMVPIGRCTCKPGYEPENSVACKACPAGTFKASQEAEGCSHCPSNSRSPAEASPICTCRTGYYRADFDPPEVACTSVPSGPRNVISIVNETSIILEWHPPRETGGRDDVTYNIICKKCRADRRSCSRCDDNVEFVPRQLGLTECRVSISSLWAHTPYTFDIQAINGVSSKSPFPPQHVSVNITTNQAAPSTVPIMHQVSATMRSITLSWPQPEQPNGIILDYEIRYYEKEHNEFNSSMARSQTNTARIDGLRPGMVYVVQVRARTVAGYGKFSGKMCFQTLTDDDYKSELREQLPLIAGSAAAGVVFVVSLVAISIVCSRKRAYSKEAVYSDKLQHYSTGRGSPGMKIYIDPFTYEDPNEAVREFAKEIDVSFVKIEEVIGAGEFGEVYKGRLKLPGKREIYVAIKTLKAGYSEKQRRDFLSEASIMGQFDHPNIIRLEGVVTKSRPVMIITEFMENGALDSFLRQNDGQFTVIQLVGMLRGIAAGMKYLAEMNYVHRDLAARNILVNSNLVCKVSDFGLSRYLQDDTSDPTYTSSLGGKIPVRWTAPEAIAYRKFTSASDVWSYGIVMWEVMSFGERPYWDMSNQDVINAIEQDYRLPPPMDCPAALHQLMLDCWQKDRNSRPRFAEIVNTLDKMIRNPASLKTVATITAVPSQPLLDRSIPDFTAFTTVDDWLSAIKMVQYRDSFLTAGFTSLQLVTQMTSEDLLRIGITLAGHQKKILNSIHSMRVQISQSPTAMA
Chain of Hck (P08631 whole entry, looked up): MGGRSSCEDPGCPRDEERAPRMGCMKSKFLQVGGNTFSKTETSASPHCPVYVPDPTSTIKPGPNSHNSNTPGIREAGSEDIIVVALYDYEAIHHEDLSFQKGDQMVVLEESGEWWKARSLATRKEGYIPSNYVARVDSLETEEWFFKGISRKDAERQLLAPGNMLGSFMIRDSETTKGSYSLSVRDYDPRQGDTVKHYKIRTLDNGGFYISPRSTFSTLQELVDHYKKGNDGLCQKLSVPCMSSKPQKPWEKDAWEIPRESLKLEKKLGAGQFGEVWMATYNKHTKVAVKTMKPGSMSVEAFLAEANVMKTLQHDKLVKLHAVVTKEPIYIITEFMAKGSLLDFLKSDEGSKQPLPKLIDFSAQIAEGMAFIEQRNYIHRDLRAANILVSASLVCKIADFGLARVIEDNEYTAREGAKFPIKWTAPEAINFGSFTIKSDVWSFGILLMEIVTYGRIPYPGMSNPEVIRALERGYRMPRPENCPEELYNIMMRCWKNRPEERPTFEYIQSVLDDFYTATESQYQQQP
Chain of Grb2 SH2 (P62993 whole entry, looked up): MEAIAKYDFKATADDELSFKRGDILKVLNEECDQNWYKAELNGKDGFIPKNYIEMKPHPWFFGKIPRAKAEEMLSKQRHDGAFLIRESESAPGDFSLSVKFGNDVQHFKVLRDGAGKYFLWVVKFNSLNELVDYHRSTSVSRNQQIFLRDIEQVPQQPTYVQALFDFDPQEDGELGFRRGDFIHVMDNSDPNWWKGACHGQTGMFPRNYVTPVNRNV
Chain of FGFR3 (P22607 whole entry, looked up): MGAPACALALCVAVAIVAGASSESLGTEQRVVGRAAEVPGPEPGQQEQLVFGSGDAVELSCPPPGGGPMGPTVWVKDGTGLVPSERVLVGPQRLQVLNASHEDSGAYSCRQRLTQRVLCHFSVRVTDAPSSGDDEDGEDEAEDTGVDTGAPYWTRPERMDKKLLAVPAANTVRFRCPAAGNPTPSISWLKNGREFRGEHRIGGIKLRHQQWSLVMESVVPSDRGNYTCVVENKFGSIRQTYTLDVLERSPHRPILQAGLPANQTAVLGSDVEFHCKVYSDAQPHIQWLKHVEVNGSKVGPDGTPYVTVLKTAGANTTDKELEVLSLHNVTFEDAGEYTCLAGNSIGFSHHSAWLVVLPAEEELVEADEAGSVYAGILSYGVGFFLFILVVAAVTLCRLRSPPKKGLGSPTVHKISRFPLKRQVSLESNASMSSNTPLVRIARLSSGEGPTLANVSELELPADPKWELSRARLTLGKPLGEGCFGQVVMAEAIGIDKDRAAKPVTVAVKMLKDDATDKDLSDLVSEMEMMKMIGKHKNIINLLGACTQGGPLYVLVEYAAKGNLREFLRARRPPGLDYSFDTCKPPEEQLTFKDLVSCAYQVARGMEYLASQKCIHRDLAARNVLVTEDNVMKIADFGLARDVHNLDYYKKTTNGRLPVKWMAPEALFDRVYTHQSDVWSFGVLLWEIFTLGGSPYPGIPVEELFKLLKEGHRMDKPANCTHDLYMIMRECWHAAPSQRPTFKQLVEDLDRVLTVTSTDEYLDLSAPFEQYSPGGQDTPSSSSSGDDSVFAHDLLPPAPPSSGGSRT
Chain of Fes (P07332 whole entry, looked up): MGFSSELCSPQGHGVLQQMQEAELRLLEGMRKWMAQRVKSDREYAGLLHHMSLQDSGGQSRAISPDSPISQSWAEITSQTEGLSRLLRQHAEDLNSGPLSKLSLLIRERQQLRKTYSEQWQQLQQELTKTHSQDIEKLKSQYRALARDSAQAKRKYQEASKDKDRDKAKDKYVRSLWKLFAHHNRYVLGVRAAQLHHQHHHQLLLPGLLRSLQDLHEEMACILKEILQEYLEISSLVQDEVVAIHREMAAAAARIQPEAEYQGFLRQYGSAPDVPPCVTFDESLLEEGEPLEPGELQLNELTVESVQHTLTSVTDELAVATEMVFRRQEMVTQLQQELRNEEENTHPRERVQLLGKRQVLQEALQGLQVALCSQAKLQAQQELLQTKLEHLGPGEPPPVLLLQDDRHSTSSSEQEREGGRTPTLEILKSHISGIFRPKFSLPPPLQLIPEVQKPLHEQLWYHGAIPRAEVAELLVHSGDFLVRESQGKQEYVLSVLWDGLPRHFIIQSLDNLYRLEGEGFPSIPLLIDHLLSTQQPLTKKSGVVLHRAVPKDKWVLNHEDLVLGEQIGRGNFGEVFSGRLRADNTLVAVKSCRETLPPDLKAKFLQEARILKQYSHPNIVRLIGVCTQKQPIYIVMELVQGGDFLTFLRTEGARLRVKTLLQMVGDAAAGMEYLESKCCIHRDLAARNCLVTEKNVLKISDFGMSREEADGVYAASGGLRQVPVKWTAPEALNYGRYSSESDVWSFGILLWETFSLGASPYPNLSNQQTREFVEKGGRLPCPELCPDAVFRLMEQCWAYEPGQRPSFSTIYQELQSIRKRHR
Chain of MERTK (Q12866 whole entry, looked up): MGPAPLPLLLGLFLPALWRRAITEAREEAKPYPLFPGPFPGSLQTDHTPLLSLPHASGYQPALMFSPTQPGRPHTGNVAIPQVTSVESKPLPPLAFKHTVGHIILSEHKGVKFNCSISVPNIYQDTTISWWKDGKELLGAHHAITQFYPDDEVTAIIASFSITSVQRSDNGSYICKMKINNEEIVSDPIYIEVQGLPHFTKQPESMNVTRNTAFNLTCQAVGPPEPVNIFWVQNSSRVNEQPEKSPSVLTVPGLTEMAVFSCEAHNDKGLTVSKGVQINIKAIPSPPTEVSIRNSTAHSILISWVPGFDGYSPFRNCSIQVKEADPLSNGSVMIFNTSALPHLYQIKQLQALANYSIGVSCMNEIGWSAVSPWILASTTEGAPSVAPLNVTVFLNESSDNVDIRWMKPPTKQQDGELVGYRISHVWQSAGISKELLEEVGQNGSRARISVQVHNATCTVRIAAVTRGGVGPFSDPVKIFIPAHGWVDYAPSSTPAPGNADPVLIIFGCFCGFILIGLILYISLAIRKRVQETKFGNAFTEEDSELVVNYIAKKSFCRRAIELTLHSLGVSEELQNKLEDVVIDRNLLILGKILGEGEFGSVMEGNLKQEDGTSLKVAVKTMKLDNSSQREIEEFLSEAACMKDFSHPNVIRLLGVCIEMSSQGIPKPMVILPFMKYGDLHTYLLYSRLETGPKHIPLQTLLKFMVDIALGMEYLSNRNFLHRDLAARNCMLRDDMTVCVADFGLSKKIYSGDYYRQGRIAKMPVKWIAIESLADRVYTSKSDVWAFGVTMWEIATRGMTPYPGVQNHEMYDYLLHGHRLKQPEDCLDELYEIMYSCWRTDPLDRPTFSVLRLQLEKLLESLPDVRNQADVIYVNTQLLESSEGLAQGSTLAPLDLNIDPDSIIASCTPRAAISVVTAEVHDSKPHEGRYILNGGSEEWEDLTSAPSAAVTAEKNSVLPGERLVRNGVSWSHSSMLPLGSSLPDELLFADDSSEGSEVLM

| Sequence | phosphorylation enrichment (AncSZ) | phosphorylation enrichment (EPHB1) | phosphorylation enrichment (EPHB2) | phosphorylation enrichment (FGFR1) | phosphorylation enrichment (FGFR3) | phosphorylation enrichment (Fer (mouse)) | phosphorylation enrichment (Fes) | phosphorylation enrichment (Fyn) | phosphorylation enrichment (Hck) | phosphorylation enrichment (Jak2) | phosphorylation enrichment (MERTK) | phosphorylation enrichment (c-Abl (mouse)) | phosphorylation enrichment (c-Src) | SH2 binding enrichment (Grb2 SH2) | SH2 binding enrichment (SHP2-C SH2) | SH2 binding enrichment (c-Src SH2) |
| --- | --- | --- | --- | --- | --- | --- | --- | --- | --- | --- | --- | --- | --- | --- | --- | --- |
| IEELTYIIKQD [STX5_Y137] | 1.33 | 0.55 | 0.578 | 0.551 | 0.665 | 0.411 | 1.52 | 0.461 | 0.528 | 1.25 | 0.469 | 0.801 | 0.554 | 0.712 | 0.779 | 0.404 |
| IEPGIYIPEDD [XPNPEP3_Y455] | 1.23 | 0.598 | 0.523 | 0.521 | 0.902 | 0.576 | 1.38 | 0.59 | 0.592 | 1.24 | 0.558 | 1.05 | 0.702 | 0.802 | 0.819 | 0.454 |
| IEPVIYVVQRR [ANOS1_Y217] | 1.37 | 0.209 | 0.486 | 0.368 | 0.475 | 0.271 | 1.23 | 0.304 | 0.315 | 1.1 | 0.531 | 0.58 | 0.356 | 0.512 | 0.236 | 0.255 |
| IFHENYNAGTF [CFI_Y421_YF] | 0.612 | 0.36 | 0.388 | 0.473 | 0.465 | 0.435 | 0.647 | 0.461 | 0.417 | 0.615 | 0.415 | 0.578 | 0.456 | 0.869 | 0.684 | 0.479 |
| IFRASYFRRGD [LTK_Y676_YF] | 0.923 | 0.431 | 0.438 | 0.465 | 0.469 | 0.439 | 0.879 | 0.512 | 0.613 | 0.668 | 0.571 | 0.63 | 0.582 | 0.382 | 0.509 | 0.315 |
| IGDENYGEGSS [ACO2_Y665] | 1.25 | 0.511 | 0.606 | 0.533 | 0.738 | 0.518 | 1.18 | 0.529 | 0.59 | 1.39 | 0.586 | 0.882 | 0.522 | 0.814 | 0.86 | 0.449 |
| IGEGTSGVVFK [CDK2_Y15_Y15S_YF] | 0.66 | 0.418 | 0.457 | 0.339 | 0.561 | 0.382 | 0.878 | 0.365 | 0.449 | 0.582 | 0.409 | 0.501 | 0.405 | 0.844 | 0.786 | 0.515 |
| IGEGTYRQVFK [CDK13_Y716_G717R_YF] | 0.693 | 0.603 | 0.582 | 0.488 | 0.654 | 0.474 | 0.973 | 0.485 | 0.634 | 0.715 | 0.348 | 0.558 | 0.386 | 0.732 | 0.505 | 0.41 |
| IHFPPYTDWNQ [ALDH3B2_Y365_YF] | 1.01 | 0.695 | 0.524 | 0.659 | 0.685 | 1.04 | 1.03 | 0.526 | 0.519 | 0.894 | 0.431 | 0.687 | 0.52 | 0.979 | 0.736 | 0.821 |
| IHHIDYFKETT [FGFR1_Y653_K656E_YF] | 0.605 | 0.456 | 0.415 | 0.443 | 0.567 | 0.451 | 0.778 | 0.555 | 0.446 | 0.692 | 0.427 | 0.445 | 0.489 | 0.832 | 0.767 | 0.447 |
| IKETHYMVDKC | 0.8 | 0.447 | 0.531 | 0.489 | 0.543 | 0.507 | 0.944 | 0.46 | 0.448 | 0.804 | 0.437 | 0.652 | 0.403 | 0.684 | 0.68 | 0.525 |
| IKSSIYDNRKE [ARAP2_Y380] | 1.13 | 0.307 | 0.321 | 0.538 | 0.504 | 0.355 | 0.725 | 0.366 | 0.753 | 0.586 | 0.416 | 0.518 | 0.58 | 0.934 | 0.741 | 0.445 |
| ILILKYPIEHG [ACTA1_Y71_T68I] | 1.07 | 0.612 | 0.479 | 0.525 | 0.807 | 0.694 | 1.29 | 0.39 | 0.488 | 1.11 | 0.424 | 0.818 | 0.491 | 2.07 | 1.72 | 1.58 |
| ILQSMYGCDVG [HLA-B_Y123_T118I] | 0.816 | 0.659 | 0.51 | 0.403 | 0.624 | 0.48 | 0.935 | 0.489 | 0.517 | 0.893 | 0.438 | 0.546 | 0.569 | 0.818 | 0.566 | 0.402 |
| IMAFFYMCDRA [CASD1_Y382_YF] | 1.48 | 0.938 | 0.648 | 0.652 | 1.12 | 0.677 | 1.63 | 0.57 | 0.545 | 1.64 | 0.544 | 1.09 | 0.57 | 0.819 | 0.825 | 0.641 |
| IMAFFYMCDSA [CASD1_Y382_R386S_YF] | 1.44 | 0.896 | 0.782 | 0.791 | 1.12 | 0.805 | 1.78 | 0.548 | 0.658 | 1.41 | 0.401 | 1.11 | 0.596 | 1.1 | 0.725 | 0.551 |
| INQGPYENRSV [ATP6V1B1_Y462] | 0.558 | 0.381 | 0.568 | 0.421 | 0.441 | 0.4 | 0.622 | 0.38 | 0.423 | 0.47 | 0.38 | 0.475 | 0.435 | 1.2 | 0.643 | 0.532 |

| Sequence | phosphorylation enrichment (AncSZ) | phosphorylation enrichment (EPHB1) | phosphorylation enrichment (EPHB2) | phosphorylation enrichment (FGFR1) | phosphorylation enrichment (FGFR3) | phosphorylation enrichment (Fer (mouse)) | phosphorylation enrichment (Fes) | phosphorylation enrichment (Fyn) | phosphorylation enrichment (Hck) | phosphorylation enrichment (Jak2) | phosphorylation enrichment (MERTK) | phosphorylation enrichment (c-Abl (mouse)) | phosphorylation enrichment (c-Src) | SH2 binding enrichment (Grb2 SH2) | SH2 binding enrichment (SHP2-C SH2) | SH2 binding enrichment (c-Src SH2) |
| --- | --- | --- | --- | --- | --- | --- | --- | --- | --- | --- | --- | --- | --- | --- | --- | --- |
| IPGGIYDADLN [CST4_Y35] | 1.24 | 0.582 | 0.649 | 0.746 | 0.836 | 0.611 | 1.32 | 1.76 | 1.65 | 1.4 | 0.787 | 1.14 | 1.62 | 0.991 | 0.876 | 0.823 |
| IPTPAYQSLPA [PDCD6IP_Y727_S730L] | 0.652 | 0.506 | 0.501 | 0.497 | 0.711 | 0.341 | 0.624 | 0.467 | 0.941 | 0.616 | 0.898 | 0.546 | 0.416 | 0.707 | 0.876 | 1.18 |
| IPTPAYQSSPA [PDCD6IP_Y727] | 0.489 | 0.452 | 0.364 | 0.377 | 0.422 | 0.373 | 0.674 | 0.406 | 0.38 | 0.541 | 0.356 | 0.504 | 0.369 | 0.767 | 0.566 | 0.567 |
| IQSAKYDMAED [TTC21B_Y1213] | 1.21 | 0.572 | 0.724 | 0.611 | 0.793 | 0.503 | 1.21 | 0.59 | 0.687 | 1.2 | 0.484 | 0.825 | 0.513 | 0.823 | 0.679 | 1.3 |
| IRRQGYSHRIL [MYO3B_Y993] | 0.733 | 0.4 | 0.568 | 0.374 | 0.469 | 0.43 | 0.656 | 0.465 | 0.419 | 0.475 | 0.464 | 0.469 | 0.42 | 0.762 | 0.526 | 0.542 |
| IRTIDYRFTVS [IDS_Y497_W502S_YF] | 0.907 | 0.496 | 0.547 | 0.483 | 0.683 | 0.596 | 1.05 | 0.424 | 0.444 | 0.989 | 0.441 | 0.989 | 0.458 | 1.18 | 1.18 | 0.813 |
| ISNATYKEIGL [FLT1_Y199] | 0.462 | 0.352 | 0.498 | 0.446 | 0.438 | 0.471 | 0.605 | 0.447 | 0.485 | 0.442 | 0.304 | 0.467 | 0.366 | 0.823 | 0.587 | 1.04 |
| ISNATYKQIGL [FLT1_Y199_E201Q] | 0.667 | 0.421 | 0.342 | 0.378 | 0.399 | 0.362 | 0.582 | 0.434 | 0.349 | 0.513 | 0.419 | 0.566 | 0.399 | 0.863 | 0.78 | 0.481 |
| ISRVLYPNDNF [PYGM_Y281] | 0.649 | 0.438 | 0.524 | 0.448 | 0.472 | 0.422 | 0.748 | 0.759 | 0.395 | 0.675 | 0.37 | 0.602 | 0.477 | 0.743 | 0.626 | 0.446 |
| ITQRAYRRHLL [SCN1A_Y1926_I1922T] | 0.63 | 0.427 | 0.417 | 0.442 | 0.48 | 0.403 | 0.557 | 0.444 | 0.457 | 0.573 | 0.585 | 0.547 | 0.622 | 0.69 | 0.585 | 0.404 |
| IVKAFYVHARA [AIPL1_Y268_R270H_YF] | 1.04 | 0.492 | 0.621 | 0.479 | 0.825 | 0.559 | 1.18 | 0.585 | 0.488 | 0.955 | 0.601 | 0.718 | 0.41 | 1.36 | 1.53 | 0.781 |
| IWDLKYTIENP [SND1_Y178_R174W] | 1.01 | 0.593 | 0.498 | 0.497 | 0.82 | 0.496 | 1.16 | 0.353 | 0.433 | 1.02 | 0.426 | 1.07 | 0.688 | 1.06 | 0.755 | 0.467 |
| IYETDYYRKGG [INSR_Y1189] | 1.05 | 0.645 | 0.673 | 0.479 | 0.771 | 1.54 | 0.885 | 1.14 | 1.28 | 0.942 | 3.92 | 0.626 | 1.16 | 0.863 | 0.621 | 0.59 |
| IYHLSYLHNCE [PDE6B_Y227] | 1.46 | 0.778 | 0.764 | 1.95 | 1.74 | 1.28 | 1.54 | 2.63 | 1.75 | 1.26 | 3.92 | 3.41 | 2.56 | 0.959 | 1 | 0.792 |
| KAIMIYVSSFF [ACTN4_Y260_T259I_YF] | 0.945 | 0.457 | 0.606 | 0.446 | 0.666 | 0.444 | 1.06 | 0.422 | 0.429 | 0.925 | 0.457 | 0.684 | 0.534 | 0.948 | 0.967 | 0.567 |
| KAIMTYVSSFF [ACTN4_Y260_YF] | 0.911 | 0.57 | 0.602 | 0.533 | 0.647 | 0.437 | 0.821 | 0.559 | 0.531 | 0.561 | 0.494 | 0.527 | 0.592 | 0.962 | 0.878 | 0.677 |
